T1: GPVI on human platelets (human, UniProt Q9HCN6 21-339)
T1 construct: whole, on cells
T1 sequence (looked up): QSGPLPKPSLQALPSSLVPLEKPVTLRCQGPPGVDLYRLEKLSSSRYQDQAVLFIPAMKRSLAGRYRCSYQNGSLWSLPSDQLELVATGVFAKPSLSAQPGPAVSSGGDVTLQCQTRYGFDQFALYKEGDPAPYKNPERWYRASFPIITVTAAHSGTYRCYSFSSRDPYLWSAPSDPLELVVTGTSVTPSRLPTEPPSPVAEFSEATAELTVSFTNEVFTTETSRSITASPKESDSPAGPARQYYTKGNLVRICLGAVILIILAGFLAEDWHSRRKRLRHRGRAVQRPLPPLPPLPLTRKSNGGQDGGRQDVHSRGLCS


Legend:
[1] = target: cynomolgus monkey D1D2-human D3 chimeric GPVI-human Fc fusion protein (GPVI-FFH-hFc) (cynomolgus monkey (D1, D2) and human …); test: SPR (BIACORE3000), GPVI-hFc coupled to CM5 chip, antibody 1.25-40 nM, bivalent analyte fit
Sequence of cynomolgus monkey D1D2-human D3 chimeric GPVI-human Fc fusion protein (GPVI-FFH-hFc) (cynomolgus monkey (D1, D2) and human …) (chain, as listed by the source mutant limits assumed): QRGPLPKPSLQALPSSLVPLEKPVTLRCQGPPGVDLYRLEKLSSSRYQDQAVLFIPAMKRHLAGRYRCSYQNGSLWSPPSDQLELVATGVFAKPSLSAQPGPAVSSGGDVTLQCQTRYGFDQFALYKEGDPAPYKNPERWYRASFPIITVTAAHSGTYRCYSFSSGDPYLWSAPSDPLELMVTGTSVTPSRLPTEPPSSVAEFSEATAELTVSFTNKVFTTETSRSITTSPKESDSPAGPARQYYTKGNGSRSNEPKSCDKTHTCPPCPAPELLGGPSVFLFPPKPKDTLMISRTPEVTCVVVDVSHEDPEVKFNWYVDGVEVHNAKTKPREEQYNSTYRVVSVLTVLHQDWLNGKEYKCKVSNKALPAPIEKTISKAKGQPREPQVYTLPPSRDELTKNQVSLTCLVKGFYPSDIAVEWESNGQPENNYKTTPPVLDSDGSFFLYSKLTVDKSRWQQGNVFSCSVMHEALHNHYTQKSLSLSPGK

[2] = target: T2, human GPVI extracellular region-human Fc fusion protein (hGPVI-hFc) (human); test: as above
T2 construct: expressed in COS-1, Protein A purified; also called GPVI-HHH-hFc; hGPVIHHH-hFc
Target sequence in this assay (chain, as listed by the source limits assumed): as the sequence (chain, as listed by the source mutant limits assumed) above, with R2S, H61S, P78L, G166R, M181V, S442P counted along it

[3] = target: T2, human GPVI extracellular region-human …; test: SPR (BIACORE3000) as in Example 5
[4] = target: T3, GPVI on cynomolgus monkey platelets (cynomolgus monkey, UniProt A0A2K5VXN2 21-318); test: homologous competitive binding of [125I]-labeled and non-labeled antibody on washed cynomolgus platelets (n=3, mean±S.E.)
T3 construct: whole, on cells; also called simian platelets
T3 sequence (A0A2K5VXN2 entry or part of it): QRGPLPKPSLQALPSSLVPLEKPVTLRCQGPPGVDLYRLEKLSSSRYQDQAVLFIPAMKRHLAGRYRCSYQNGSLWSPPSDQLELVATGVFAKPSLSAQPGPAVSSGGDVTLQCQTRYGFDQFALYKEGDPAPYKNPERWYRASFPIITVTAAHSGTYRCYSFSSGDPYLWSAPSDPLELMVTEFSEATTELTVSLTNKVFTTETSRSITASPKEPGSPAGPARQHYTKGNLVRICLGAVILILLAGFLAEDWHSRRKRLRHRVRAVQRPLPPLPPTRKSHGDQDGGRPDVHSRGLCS

[5] = target: T1, GPVI on human platelets; test: homologous competitive binding of [125I]-labeled and non-labeled antibody on washed human platelets (n=3, mean±S.E.)

Binder	Kd [1] [nM]	Kd [2] [nM]	KD (Relative value) against F1232-37-2 [3]	Kd [4] [nM]	Kd [5] [nM]
F1232-7-1 (antibody, V domains shown, mouse monoclonal antibody from hybridoma) VH: VQLQQSGPELVRPGESVKISCKGSGYTFTDYAIHWVKLSHAKSLEWIGVISIYYDDTNYNQKFKGKATMTVDKSSSTAYMELARLTSEDSAIYYCARRRDSSGPYAMDYWGQGTSVTVSS VL: DIVLTQSPASLAVSLGQRATISCRASESVDSYGNSFMHWYQQKPGQPPKLLIYRASNLESGIPARFSGSGSRTDFTLTINPVEADDVATYYCQQSNEDPYTFGGGTKLEIKR	343				
F1232-18-3 (antibody, V domains shown, mouse monoclonal antibody from hybridoma) VH: VMLVESGGGLVKPGGSLKLSCAASGFTFSSYAMSWVRQTPEKRLEWVATISSGGSYTYYPDSVKGRFTISRDNAKNTLYLQMSSLRSADTAMYYCARDYGYFDYWGQGTTLTVSS VL: DIVLTQSPASLAVSLGQRATISCRASESVDNYGISFMHWYQQKPGQPPKLLFYRASNLESGIPARFSGSGSRTDFTLTINPVETDDVATYYCQQSNTDPRTFGGGTKLEIKR	365	1.65			
F1201-18 (antibody, V domains shown, mouse monoclonal antibody from hybridoma) VH: VQLVESGGGLVKPGGSLKLSCAASGFTFSSYAMSWVRQTPEKRLEWVAIISSGGSYTYYPDSVKGRFTISRDNAKNTLYLHMSSLRSEDTAMYYCARQGGGYFDYWGQGTTLTVSS VL: DIVLTQSPASLAVSLGQRATISCRASESVDSYGNSFMHWYQQKPGQPPKLLIYRASNVESGIPARFSGSGSRTDFTLTINPVEADDVATYYCQQSNEDPPTFGAGTKLELKR		1.16			
F1232-17-1 (antibody, V domains shown, mouse monoclonal antibody from hybridoma) VH: VQLVESGGDLVKPGGSLKLSCAASGFTFSSYGMSWVRQTPDKRLEWVATISSGGSYTYYPDNVKGRFTISRDNAKNTLYLQMSSLNSEDTAMYYCARQVYYFGSCDYWGQGTTLTVSS VL: DIVLTQSPASLAVSLGQRATISCRASESVDNYGISFMHWYQQKPGQPPKLLIYRASNLESGIPARFSGSGSRTDFTLTINPVETDDVATYYCQQSNKDPWTFGGGTKLEIKR	0.177	0.522			

The next lines start with the values.

Kd [1] [nM]	Kd [2] [nM]	KD (Relative value) against F1232-37-2 [3]	Kd [4] [nM]	Kd [5] [nM]	Binder
1	0.403	1 relative to KD of F1232-37-2			F1232-37-2 (antibody, V domains shown, mouse monoclonal antibody from hybridoma; also called F1232-37-2 (whole antibody)) VH: VQLQQSGPELVRPGESVKISCKGSGYTFTDYAIHWVKLSHAKSLEWIGVISIYYDDTNYNQKFKGKATMTVDKSSSTAYLELARLTSEDSAIYYCARRRDSSGPYAMDYWGQGTSVTVSS VL: DIVLTQSPASLAVSLGQRATISCRASESVDSYGNSFMHWYQQKPGQPPKLLIYRASNLESGIPARFSGSGSRTDFTLTINPVEADDVATYYCQQSNEDPYTFGGGTKLEIKR
			20	17	cF1232-37-2/CHO (antibody, V domains shown, also called cF1232-37-2 expressed by CHO cells) VH: VQLQQSGPELVRPGESVKISCKGSGYTFTDYAIHWVKLSHAKSLEWIGVISIYYDDTNYNQKFKGKATMTVDKSSSTAYLELARLTSEDSAIYYCARRRDSSGPYAMDYWGQGTSVTVSS VL: DIVLTQSPASLAVSLGQRATISCRASESVDSYGNSFMHWYQQKPGQPPKLLIYRASNLESGIPARFSGSGSRTDFTLTINPVEADDVATYYCQQSNEDPYTFGGGTKLEIKR
		1.59 relative to KD of F1232-37-2			F1249-3-2 (antibody, V domains shown) VH: EVQLVESGGGLVKPGGSLKLSCAASGFTFSSYGMSWVRQTPDKRLEWVATISSGGSYTYYSDSVKGRFTISRDNAKNNLYLQLSSLKSQDTAIYYCARDSGYFDYWGQGTTLTVSS VL: NIVLTQSPASLAVSLGQRATISCRASESVDSYGNSFMHWYQQKPGQPPKLLIYLASNLESGVPARFSGSGSRTDFTLTIDPVEADDAATYYCQQNNEDPRTFGGGTKLEIKR
0.71	0.25				F1232-24-1 (antibody, V domains shown, mouse monoclonal antibody from hybridoma) VH: VQLQQSGAELVRPGVSVKISCKGSGYTFTDYAMHWVKQSHAKSLEWIGVISTYYGDASYNQKFKGKATMTVDKSSSTAYMELARLTSEDSAIYYCARSYDYDPWFAYWGQGTLVTVSA VL: DIVLTQSPASLAVSLGQRATISCRASESVDNYGISFMHWYQQKPGQPPKLLIYRASNLESGIPARFSGSGSRTDFTLTINPVETDDVATYYCQQSNKDPLTFGAGTKLELKR
